Residue numbers refer to the chain shown, from its start. Names and notes keep the numbering of the source.
T1: human FcγR2A 131R (human, UniProt P12318 34-217)
T1 construct: extracellular domain
T1 sequence (looked up): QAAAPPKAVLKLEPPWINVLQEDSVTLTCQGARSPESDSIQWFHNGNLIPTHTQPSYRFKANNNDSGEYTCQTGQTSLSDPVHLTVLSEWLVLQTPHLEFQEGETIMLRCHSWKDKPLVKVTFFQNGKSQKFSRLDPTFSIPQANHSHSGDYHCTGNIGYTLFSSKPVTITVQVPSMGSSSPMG

T2: human FcγR2A 131H (human, UniProt P12318 34-217)
T2 construct: extracellular domain
T2 sequence (looked up): T1 sequence (looked up) with R134H

T3: human FcγR2B (human, UniProt P31994 43-217)
T3 construct: extracellular domain; also called hFcγR2B; CD32B
T3 sequence (looked up): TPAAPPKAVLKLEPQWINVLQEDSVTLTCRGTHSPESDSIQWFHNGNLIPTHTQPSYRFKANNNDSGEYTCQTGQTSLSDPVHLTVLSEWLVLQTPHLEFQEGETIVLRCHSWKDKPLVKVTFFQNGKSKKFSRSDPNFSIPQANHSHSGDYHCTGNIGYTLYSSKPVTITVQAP

T4: soluble cynomolgus macaque BTLA extracellular domain (BTLA K31-R151) (cynomolgus macaque)
T4 construct: also called cynomolgus BTLA; cyno BTLA
T4 chain: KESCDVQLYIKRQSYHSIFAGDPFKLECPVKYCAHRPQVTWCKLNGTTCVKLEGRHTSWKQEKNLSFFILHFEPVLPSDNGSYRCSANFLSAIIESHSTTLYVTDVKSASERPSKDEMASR

B1: humanised 2.8.6 hIgG1 delta ac P238D (antibody)
chain 1: QVTLKESGPALVKPTQTLTLTCTVSGFSLTTYGVHWIRQPPGKALEWLGVMWPGGRTSYNPSLKSRLTITKDNSKSQVVLTMTNMDPVDTATYYCVRGDYEYDYYAMDYWGQGTLVTVSSASTKGPSVFPLAPSSKSTSGGTAALGCLVKDYFPEPVTVSWNSGALTSGVHTFPAVLQSSGLYSLSSVVTVPSSSLGTQTYICNVNHKPSNTKVDKKVEPKSCDKTHTCPPCPAPPVAGGDSVFLFPPKPKDTLMISRTPEVTCVVVDVSHEDPEVKFNWYVDGVEVHNAKTKPREEQYNSTYRVVSVLTVLHQDWLNGKEYKCKVSNKGLPSSIEKTISKAKGQPREPQVYTLPPSRDELTKNQVSLTCLVKGFYPSDIAVEWESNGQPENNYKTTPPVLDSDGSFFLYSKLTVDKSRWQQGNVFSCSVMHEALHNHYTQKSLSLSP
chain 2: EIVLTQSPATLSLSPGERATLSCRASSSVSYMHWYQQKPGQAPRPLIYATSNRATGIPARFSGSGSGTDYTLTISSLEPEDFAVYYCHQWSSNPYTFGQGTKLEIKRTVAAPSVFIFPPSDEQLKSGTASVVCLLNNFYPREAKVQWKVDNALQSGNSQESVTEQDSKDSTYSLSSTLTLSKADYEKHKVYACEVTHQGLSSPVTKSFNRGEC
B2: humanised 2.8.6 hIgG1 delta ab P238D (antibody)
chain 1: QVTLKESGPALVKPTQTLTLTCTVSGFSLTTYGVHWIRQPPGKALEWLGVMWPGGRTSYNPSLKSRLTITKDNSKSQVVLTMTNMDPVDTATYYCVRGDYEYDYYAMDYWGQGTLVTVSSASTKGPSVFPLAPSSKSTSGGTAALGCLVKDYFPEPVTVSWNSGALTSGVHTFPAVLQSSGLYSLSSVVTVPSSSLGTQTYICNVNHKPSNTKVDKKVEPKSCDKTHTCPPCPAPPVAGDSVFLFPPKPKDTLMISRTPEVTCVVVDVSHEDPEVKFNWYVDGVEVHNAKTKPREEQYNSTYRVVSVLTVLHQDWLNGKEYKCKVSNKGLPSSIEKTISKAKGQPREPQVYTLPPSRDELTKNQVSLTCLVKGFYPSDIAVEWESNGQPENNYKTTPPVLDSDGSFFLYSKLTVDKSRWQQGNVFSCSVMHEALHNHYTQKSLSLSP
chain 2: B1 chain 2
B3: 3E8 (antibody, IgG1, V domains shown)
VH: QVQLQQSGAELARPGASVRLSCKASGYTFTSYAIRWVKQRTGQGLEWIGEIYPRSGNTYYNENFKGKATLTADKSSSTAYMELRSLTSEDSAVYFCARSGGASYTMDYWGQGTSVTVSS
VL: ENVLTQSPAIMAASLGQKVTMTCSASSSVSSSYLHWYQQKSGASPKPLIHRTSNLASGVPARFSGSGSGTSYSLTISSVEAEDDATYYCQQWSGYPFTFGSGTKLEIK
notes: mIgG1; also called clone 3E8
B4: 26B1 (antibody, IgG1, V domains shown)
VH: EVQLQQSGPVLVKPGASVKMSCKASGYTFTDYYLNWVKQSHGKSLEWIGLIDPYNGGSSCNQKFKGKATLTVDKSSSTAYMDLNSLTSEDSAVYYCARGNAMDYWGQGTSVTVSS
VL: DIVMTQSHKFMSTSVGDRVSITCKASQDVSTAVAWYQEKPGQSPKLLIYWASTRHTGVPDRFTGSGSGTDYILNISSVQAEDLALYYCQQHYIIPYMFGGGTKLEIK
notes: mIgG1
B5: 8C4 (antibody, IgG1, V domains shown)
VH: DVQLQESGPGMVKPSQSLSLTCTVTGYSITSGYDWHWIRHFPGNKLEWMGYISYSGSTNYNPSLKSRISITHDTSKNHFFLKLNSVTTEDTATYYCARGTPVVAEDYFDYWGQGTTLTVSS
VL: QAVVTQESALSTSPGETVTLTCRSSTGAVTTSNYANWVQEKPDHLFTGLIGATNNRAPGVPARFSGSLIGDKAALTITGAQTEDEAIYFCALWYSNHLVFGGGTKLTVLG
notes: mIgG1
B6: 1H6 (antibody, IgG1, V domains shown)
VH: EVQLQQSVAELVRPGASVKLSCTASGFNIKNTYMHWVKQRPEQGLEWIGRIDPANGNTKYDPKFQGKATITADTSSNTAYVQLSSLTSEDTAIYYCALTYYGSSQHYFDYWGQGTTLTVSS
VL: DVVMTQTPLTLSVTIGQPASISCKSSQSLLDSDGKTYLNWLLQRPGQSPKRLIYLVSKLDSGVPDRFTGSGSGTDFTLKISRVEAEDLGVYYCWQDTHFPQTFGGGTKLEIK
notes: mIgG1
B7: 24H7 (antibody, IgG1, V domains shown)
VH: QVQLQQSGAELVRPGASVTLSCKASGYTFTDYEIHWVKQTLVHGLEWIGPIDPDTGNTAYNQNLKGKAILTADKSSSTAYMELRSLTSEDSAVYYCTRGGYDSDWGFAYWGQGTLVTVSA
VL: DIVMTQATPSVPVTPGESVSISCRSSKSLLHSNGNTFLFWFLQRPGQSPQLLIYRMSDLASGVPDRFSGSGSGTAFTLRISRVEAEDVGIYYCMQHLEYPFTFGSGTKLEIK
notes: mIgG1
B8: 14D4 (antibody, IgG1, V domains shown)
VH: QVQLQQPGAELVKPRASVKLSCKASGYTFTSYWMHWVKQRPGQGLEWIGMIHPNNGIPNYNEKFKSKATLTVDKSSTTAYMQLSSLTSEDSAVYHCAREGYYGSEGYFDVWGTGTTVTVSS
VL: QIVLTQSPAIMSASPGEKVTMTCSASSSISYIHWYQQKPGTSPKRWIYDTSKLASGVPARFSGSGSGTSYSLTISSMEAEDAATYYCHQRSTYPYTFGGGTKLEIK
notes: mIgG1
B9: 16H2 (antibody, IgG1, V domains shown)
VH: EVQLQQSGPELVQPGASVKISCKASGYTFTDYYMIWVKQSHGKSLEWIGNINPNNGGTTYNQKFKGKATLTVDKSSSTAYMGLPSLTSEDSAVYYCARGGLRPLYFDYWGQGTTLTVSS
VL: NIVMTQSPKSMSMSVGERVTLSCKASENVDTYVSWYQQKPEQSPKLLIYGASNRYTGVPDRFTGSGSATDFTLTISSVQAEDLADYHCGQSYSYPLTFGAGTKLELI
notes: mIgG1
B10: Engineered humanised 6.2 (Variant A) (antibody, V domains shown)
VH: EVQLVESGGGLVKPGGSLRLSCAASGFTLSSYGMSWVRQAPGKGLEWVASIRSEGQTYYPDSVKGRFTISRDNAKNTLYLQMSSLRAEDTAVYYCTRGGYYGSSPYYWGQGTTVTVSS
VL: DIVMTQSPLSLPVTPGEPASISCKSSQSLLYSSNQKNYLAWYQQKPGQSPKLLIYWASTRESGVPDRFSGSGSGTDFTLKISRVEAEDVGVYYCQQYYNYLTFGGGTKVEIKR

target: T5, human FcRn (human, UniProt P55899 24-297; P61769 21-119, limits assumed, biotinylated); assay: SPR, pH6.0
T5 construct: bought; also called FcRn pH6
T5 sequence (P55899 24-297 limits assumed, chain 1 of 2): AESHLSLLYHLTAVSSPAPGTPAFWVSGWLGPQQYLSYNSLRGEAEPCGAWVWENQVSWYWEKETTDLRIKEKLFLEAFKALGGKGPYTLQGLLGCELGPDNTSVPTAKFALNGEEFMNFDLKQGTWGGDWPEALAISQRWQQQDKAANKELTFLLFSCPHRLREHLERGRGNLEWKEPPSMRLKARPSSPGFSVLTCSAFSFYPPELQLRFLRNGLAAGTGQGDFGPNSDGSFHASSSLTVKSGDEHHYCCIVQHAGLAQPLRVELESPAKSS
T5 sequence (P61769 21-119 limits assumed, chain 2 of 2): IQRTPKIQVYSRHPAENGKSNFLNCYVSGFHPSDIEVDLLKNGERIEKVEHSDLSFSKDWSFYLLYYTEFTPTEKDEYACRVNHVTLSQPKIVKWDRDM
Procedure: For the high affinity FcR interactions (FcγR1A, and also FcRn assessed at pH6.0) the binding was assessed in a kinetic analysis with antibody as analyte. […] Reference flow cell 1 was left empty in all channels. Purified antibody was then injected at a single concentration and on/off rates calculated by curve fitting on BiaEvaluation software. […] IgG Fc has two binding sites for FcRn so this assessment performed with FcRn immobilised at high density provides an avidity estimate for the interaction rather than a true KD.
For AntiCD3/CD28 (CD4 T cell proliferation) repeat 1 in this document: test concentration or dose not given here.
For AntiCD3/CD28 (CD4 T cell proliferation) repeat 2 in this document: test concentration or dose not given here.
For AntiCD3/CD28 (CD69+ CD4 T cells) repeat 1 in this document: test concentration or dose not given here.
For T cell reporter (NFκB signaling) in this document: test concentration or dose not given here.

Row | Binder | avidity (FcRn pH6)
1 | B1 | 14.2 nM

target: T1, human FcγR2A 131R; assay: SPR 37C, steady state;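 also: fc variants captured on chip-bound human BTLA ectodomain, recombinant FcγR ectodomains injected as analyte at varied concentrations, double-referenced equilibrium binding fitted to Langmuir model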
Procedure: (§1) For the low affinity FcγRs (FcγR2A, FcγR2B, FcγR3A and FcγR3B) the interactions were assessed by surface plasmon resonance with the recombinantly expressed FcRs (extracellular domains only) as analyte. Briefly, recombinant human BTLA extracellular domain (BTLA^K31-R151) was covalently immobilised to both flow cells of all channels of a CMS Series S sensor chip using the GE Healthcare Amine coupling kit. The 2.8.6 Fc variant to be assessed was then captured (approx. 500-1000 response units) in flow cell 2 of each channel. Steady state affinity analysis was then performed by injecting varying concentrations of FcR in multiple cycles and measuring equilibrium binding. Double referencing was used (subtracting the signal in the reference Fc1 and also subtracting the signal from a blank zero concentration injection). KDs were calculated from the Langmuir curves (plotting equilibrium binding against analyte concentration to determine the concentration required for half maximal binding).

Row | Binder | Kd
2 | B1 | 399 µM

target: T2, human FcγR2A 131H; assay: SPR 37C, steady state;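 also: fc variants captured on chip-bound human BTLA ectodomain, recombinant FcγR ectodomains injected as analyte at varied concentrations, double-referenced equilibrium binding fitted to Langmuir model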
Procedure: as §1

Row | Binder | Kd
3 | B2 | 771 µM

target: T3, human FcγR2B; assay: SPR 37C, steady state;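 also: fc variants captured on chip-bound human BTLA ectodomain, recombinant FcγR ectodomains injected as analyte at varied concentrations, double-referenced equilibrium binding fitted to Langmuir model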
Procedure: as §1

Row | Binder | Kd
4 | B2 | 876 µM
5 | B1 | 1170 µM

target: T6, human FcγR3A 158V (human, UniProt P08637 17-208); assay: SPR 37C, steady state;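 also: fc variants captured on chip-bound human BTLA ectodomain, recombinant FcγR ectodomains injected as analyte at varied concentrations, double-referenced equilibrium binding fitted to Langmuir model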
T6 construct: extracellular domain
T6 sequence (P08637 17-208 F176V): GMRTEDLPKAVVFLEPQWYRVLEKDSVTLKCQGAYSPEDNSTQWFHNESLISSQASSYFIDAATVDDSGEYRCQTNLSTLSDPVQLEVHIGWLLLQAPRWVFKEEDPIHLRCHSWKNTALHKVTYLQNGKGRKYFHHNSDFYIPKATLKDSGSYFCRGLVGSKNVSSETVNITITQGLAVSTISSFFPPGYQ
Procedure: as §1

Row | Binder | Kd
6 | B1 | 1410 µM

target: full length human BTLA expressed on cells (human, UniProt Q7Z6A9 31-289); assay: cell-based or functional assay

Row | Binder | T cell reporter (NFκB signaling)
7 | B3 | 30 % inhibition
8 | B4 | 29 % inhibition
9 | B5 | 21 % inhibition
10 | B6 | 26 % inhibition
11 | B7 | 22 % inhibition
12 | B8 | 16 % inhibition
13 | B9 | 29 % inhibition

target: chimeric BTLA of humanised-BTLA mice (human extracellular region, murine transmembrane and signaling … (human; mouse, UniProt Q7TSA3 184-306, limits assumed); assay: cell-based or functional assay
Sequence (Q7TSA3 other isoform, or with tags, fused parts or gaps mutant limits assumed): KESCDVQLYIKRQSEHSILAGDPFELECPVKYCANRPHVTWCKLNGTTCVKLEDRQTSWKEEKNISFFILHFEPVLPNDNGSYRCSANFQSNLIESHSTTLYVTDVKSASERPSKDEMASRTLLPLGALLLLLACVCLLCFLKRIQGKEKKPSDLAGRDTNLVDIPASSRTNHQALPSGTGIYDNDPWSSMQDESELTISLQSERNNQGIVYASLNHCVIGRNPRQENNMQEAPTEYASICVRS

Row | Binder | AntiCD3/CD28 (CD4 T cell proliferation) repeat 1 | AntiCD3/CD28 (CD4 T cell proliferation) repeat 2 | AntiCD3/CD28 (CD69+ CD4 T cells) repeat 1 | AntiCD3/CD28 (CD69+ CD4 T cells) repeat 2 | MLR (CD4 T cell proliferation) repeat 1 | MLR (CD4 T cell proliferation) repeat 2
14 | B3 | 27 % inhibition | 35 % inhibition | 52 % inhibition | 64 % inhibition | 43 % inhibition | 35 % inhibition
15 | B4 | 11 % inhibition | 19 % inhibition | 35 % inhibition | 30 % inhibition | 12 % inhibition | 10 % inhibition
16 | B5 | 12 % inhibition | 4 % inhibition | 29 % inhibition | 29 % inhibition | 42 % inhibition | -2 % inhibition
17 | B6 | 26 % inhibition | 19 % inhibition | 47 % inhibition | 53 % inhibition | 31 % inhibition | 16 % inhibition
18 | B7 | 13 % inhibition | 23 % inhibition | 52 % inhibition | 44 % inhibition | 23 % inhibition | 31 % inhibition
19 | B8 | 24 % inhibition | 29 % inhibition | 43 % inhibition | 52 % inhibition | 39 % inhibition | 26 % inhibition
20 | B9 | 11 % inhibition | 23 % inhibition | 51 % inhibition | 60 % inhibition | 40 % inhibition | 26 % inhibition

target: T7, monomeric soluble human BTLA extracellular domain (BTLA K31-R151) (human, UniProt Q7Z6A9 31-151); assay: SPR 37C, mAb captured, BTLA ECD analyte;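 also: Anti-BTLA mouse antibodies captured on a sensor chip via polyclonal anti-mouse IgG, isotype control antibody in reference channel, rates fitted after reference and blank subtraction to derive Kd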
T7 construct: also called hBTLA; monomeric BTLA

Row | Binder | Kd | koff | kon
21 | B3 | 0.112 µM | 0.0608 s⁻¹ | 543000 M⁻¹ s⁻¹
22 | B7 | 0.00066 µM | 0.00016 s⁻¹ | 243000 M⁻¹ s⁻¹

Target: T4, soluble cynomolgus macaque BTLA …
Assay: SPR 37C, mAb captured, BTLA ECD analyte;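 also: Anti-BTLA mouse antibodies captured on a sensor chip via polyclonal anti-mouse IgG, isotype control antibody in reference channel, rates fitted after reference and blank subtraction to derive Kd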

Row | Binder | Kd
23 | B3 | 0.607 µM
24 | B4 | 0.168 µM
25 | B5 | 0.161 µM
26 | B6 | 0.00608 µM
27 | B8 | 0.00183 µM
28 | B9 | 0.16 µM

target: T7, monomeric soluble human BTLA …; assay: SPR Biacore 8K 37C, single cycle kinetics;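 also: antibody captured on sensor chip, soluble BTLA extracellular domain flowed over at several concentrations in HBS-EP pH 7.4, rates fitted after subtracting isotype-control reference channel and blank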
Procedure: (§2) The binding affinity and kinetics of humanised BTLA agonist antibodies to human or cynomolgus BTLA were determined by surface plasmon resonance using the Biacore 8K (GE Healthcare). […] Anti-BTLA antibody was then captured onto the biosensor surface and a negative control antibody (human IgG1k isotype control; Sino Biological cat #HG1K) captured in the reference channel. Various concentrations of monomeric soluble human BTLA extracellular domain (BTLA^K31-R151, produced recombinantly in house) or soluble cynomolgus macaque BTLA extracellular domain (BTLA^K31-R151, produced recombinantly in house) were then injected over the immobilized antibodies in the buffer HBS-EP (GE Healthcare, cat #BR100669), pH 7.4 (HBS-P) at 37° C., in a single cycle kinetics analysis.

Row | Binder | Kd | koff | kon
29 | B10 | 0.0109 µM | 0.00756 s⁻¹ | 694000 M⁻¹ s⁻¹

Target: T4, soluble cynomolgus macaque BTLA …
Assay: SPR Biacore 8K 37C, single cycle kinetics;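 also: antibody captured on sensor chip, soluble BTLA extracellular domain flowed over at several concentrations in HBS-EP pH 7.4, rates fitted after subtracting isotype-control reference channel and blank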
Procedure: as §2

Row | Binder | Kd | koff | kon
30 | B10 | 0.695 µM | 0.0507 s⁻¹ | 72900 M⁻¹ s⁻¹

Source: patent publication US20230235058A1 (OXFORD UNIVERSITY INNOVATION, published 2023)
